US7067277B1, “Chimeric G proteins and uses thereof” (H. Lundbeck A/S, priority 1999, dated 2006)

T1: h Y2 (Homo sapiens, UniProt P49146)
T1 construct: expressed in transfected cells; host or cells: COS-7
T1 sequence (P49146 1-381): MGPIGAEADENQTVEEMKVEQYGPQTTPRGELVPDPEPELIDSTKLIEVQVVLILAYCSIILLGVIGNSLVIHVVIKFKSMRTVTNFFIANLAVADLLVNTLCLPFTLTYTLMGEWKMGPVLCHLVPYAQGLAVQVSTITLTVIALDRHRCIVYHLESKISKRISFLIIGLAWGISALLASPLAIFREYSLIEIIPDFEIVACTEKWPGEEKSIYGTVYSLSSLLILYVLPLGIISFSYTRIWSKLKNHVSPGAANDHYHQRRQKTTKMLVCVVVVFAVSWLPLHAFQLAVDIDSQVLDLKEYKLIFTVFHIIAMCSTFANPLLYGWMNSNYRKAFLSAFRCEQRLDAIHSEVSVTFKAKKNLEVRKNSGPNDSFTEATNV

T2: h 5HT1A (Homo sapiens, UniProt P08908)
T2 sequence (P08908 1-422): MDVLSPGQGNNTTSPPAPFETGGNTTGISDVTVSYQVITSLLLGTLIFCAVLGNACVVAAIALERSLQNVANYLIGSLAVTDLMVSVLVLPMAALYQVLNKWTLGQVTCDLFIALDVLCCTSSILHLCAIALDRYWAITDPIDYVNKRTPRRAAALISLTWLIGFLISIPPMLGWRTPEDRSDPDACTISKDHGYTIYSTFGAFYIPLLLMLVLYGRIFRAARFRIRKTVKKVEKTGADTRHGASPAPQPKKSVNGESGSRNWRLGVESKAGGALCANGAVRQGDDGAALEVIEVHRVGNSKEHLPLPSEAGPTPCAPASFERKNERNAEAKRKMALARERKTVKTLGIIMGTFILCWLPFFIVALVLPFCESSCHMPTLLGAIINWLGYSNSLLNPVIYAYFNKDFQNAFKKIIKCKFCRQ

T3: r GALR3 (Rattus norvegicus, UniProt O88626)
T3 sequence (O88626 1-370): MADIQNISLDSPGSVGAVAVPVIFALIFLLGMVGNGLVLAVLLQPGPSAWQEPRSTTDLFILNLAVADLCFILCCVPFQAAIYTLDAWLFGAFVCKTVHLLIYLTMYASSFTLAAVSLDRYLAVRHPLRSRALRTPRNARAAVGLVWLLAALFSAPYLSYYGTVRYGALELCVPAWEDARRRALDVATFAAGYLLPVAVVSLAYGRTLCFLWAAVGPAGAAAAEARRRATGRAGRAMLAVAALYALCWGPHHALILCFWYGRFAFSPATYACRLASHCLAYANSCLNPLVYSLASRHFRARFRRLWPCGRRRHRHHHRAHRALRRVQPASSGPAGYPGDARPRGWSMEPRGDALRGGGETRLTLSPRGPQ

T4: h α2C adr (Homo sapiens, UniProt P18825)
T4 construct: expressed in transfected cells; host or cells: COS-7
T4 sequence (P18825 1-462): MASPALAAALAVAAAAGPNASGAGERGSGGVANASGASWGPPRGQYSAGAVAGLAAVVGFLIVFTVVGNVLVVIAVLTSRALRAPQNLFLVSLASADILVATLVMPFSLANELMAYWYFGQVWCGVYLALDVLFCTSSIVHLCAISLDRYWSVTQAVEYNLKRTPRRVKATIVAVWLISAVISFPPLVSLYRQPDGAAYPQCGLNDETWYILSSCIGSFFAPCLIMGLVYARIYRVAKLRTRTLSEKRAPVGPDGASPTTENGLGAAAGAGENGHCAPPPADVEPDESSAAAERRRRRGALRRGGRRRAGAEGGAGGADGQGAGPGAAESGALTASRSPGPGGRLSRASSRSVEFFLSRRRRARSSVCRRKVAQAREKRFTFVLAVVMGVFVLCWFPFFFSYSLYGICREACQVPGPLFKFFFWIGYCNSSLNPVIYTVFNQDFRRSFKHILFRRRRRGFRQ


Key:
Assay in all cases: Calcium mobilization (FLIPR, Fluo-3) in transfected COS-7 cells
Assay type in all cases: cell-based
h Y2 = target: T1, h Y2; conditions: h Y2 + chimera in COS-7; agonist NPY, max 10 μM
Procedure, shortened: (§1)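 Assay buffer was HBSS with 20 mM HEPES (pH 7.4), 0.1% BSA and 2.5 mM probenecid, and cells were loaded with 4 μM Fluo-3. Transfected COS-7 cells carried receptor and chimeric G protein cDNA at 1:1 or 8:1:1 ratios. Peak fluorescence change gave Hill-fitted curves.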

h kappa = target: T5, h kappa (Homo sapiens, UniProt P41145); conditions: h kappa + chimera in COS-7; agonist U-69593, max 100 μM
T5 construct: expressed in transfected cells; host or cells: COS-7
T5 sequence (P41145 whole entry): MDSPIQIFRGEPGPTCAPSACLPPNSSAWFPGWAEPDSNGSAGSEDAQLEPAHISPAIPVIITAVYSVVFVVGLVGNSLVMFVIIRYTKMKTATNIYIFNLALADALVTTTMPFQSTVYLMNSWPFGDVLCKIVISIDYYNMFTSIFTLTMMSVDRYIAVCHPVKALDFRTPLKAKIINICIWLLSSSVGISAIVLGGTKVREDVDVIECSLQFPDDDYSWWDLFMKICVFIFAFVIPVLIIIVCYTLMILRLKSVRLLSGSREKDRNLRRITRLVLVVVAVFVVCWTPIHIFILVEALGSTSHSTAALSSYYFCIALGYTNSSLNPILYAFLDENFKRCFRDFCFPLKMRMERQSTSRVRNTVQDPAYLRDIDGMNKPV
Procedure, shortened: as §1

h 5HT1A = target: T2, h 5HT1A; conditions: h 5HT1A + chimera in COS-7; agonist 5HT, max 100 μM
Procedure, shortened: as §1

r GALR3 = target: T3, r GALR3; conditions: r GALR3 + chimera in COS-7; agonist GAL, max 10 μM
Procedure, shortened: as §1

h α2C adr = target: T4, h α2C adr; conditions: h α2C adr + chimera in COS-7; agonist NE, max 100 μM
Procedure, shortened: as §1

h β2 adr = h β2 adr (Homo sapiens, UniProt P07550); conditions: h β2 adr + chimera in COS-7; agonist NE, max 100 μM
Procedure, shortened: as §1

| Molecule | MAXIMAL SIGNAL (FLUORESCENCE UNITS) (h Y2) [fluorescence units] | MAXIMAL SIGNAL (FLUORESCENCE UNITS) (h kappa) [fluorescence units] | MAXIMAL SIGNAL (FLUORESCENCE UNITS) (h 5HT1A) [fluorescence units] | MAXIMAL SIGNAL (FLUORESCENCE UNITS) (r GALR3) [fluorescence units] | MAXIMAL SIGNAL (FLUORESCENCE UNITS) (h α2C adr) [fluorescence units] | MAXIMAL SIGNAL (FLUORESCENCE UNITS) (h β2 adr) [fluorescence units] |
| --- | --- | --- | --- | --- | --- | --- |
| cGαq/z5: chimeric Gα subunit: C-terminal final 5 amino acids of C. elegans Gαq replaced with those of hGαz (SEQ ID NO: 1) (protein, C. elegans) MACCLSEEAREQKRINQEIEKQLQRDKRNARRELKLLLLGTGESGKSTFIKQMRIIHGQGYSEEDKRAHIRLVYQNVFMAIQSMIRAMDTLDIKFGNESEELQEKAAVVREVDFESVTSFEEPYVSYIKELWEDSGIQECYDRRREYQLTDSAKYYLSDLRRLAVPDYLPTEQDILRVRVPTTGIIEYPFDLEQIIFRMVDVGGQRSERRKWIHCFENVTSIMFLVALSEYDQVLVECDNENRMEESKALFRTIITYPWFTNSSVILFLNKKDLLEEKILYSHLADYFPEYDGPPRDPIAAREFILKMFVDLNPDADKIIYSHFTCATDTENIRFVFAAVKDTILQHNLKYIGLC | 7708 | 5975 | 1997 | 2298 | 4143 | 1842 |
| cGαq/z9: C. elegans Gαq with Gαz portion of the C-terminal tail extended to 9 amino acids (SEQ ID NO: 2) (protein, C. elegans) MACCLSEEAREQKRINQEIEKQLQRDKRNARRELKLLLLGTGESGKSTFIKQMRIIHGQGYSEEDKRAHIRLVYQNVFMAIQSMIRAMDTLDIKFGNESEELQEKAAVVREVDFESVTSFEEPYVSYIKELWEDSGIQECYDRRREYQLTDSAKYYLSDLRRLAVPDYLPTEQDILRVRVPTTGIIEYPFDLEQIIFRMVDVGGQRSERRKWIHCFENVTSIMFLVALSEYDQVLVECDNENRMEESKALFRTIITYPWFTNSSVILFLNKKDLLEEKILYSHLADYFPEYDGPPRDPIAAREFILKMFVDLNPDADKIIYSHFTCATDTENIRFVFAAVKDTILQNNLKYIGLC | 5387 | 3472 | 3139 | 2971 | 3874 | 1697 |
